Assay results published in PMC6742479 (Molecular cell, 2015).

T1: GST-scKap104 (S. cerevisiae, UniProt P38217 1-918)
T1 sequence (looked up): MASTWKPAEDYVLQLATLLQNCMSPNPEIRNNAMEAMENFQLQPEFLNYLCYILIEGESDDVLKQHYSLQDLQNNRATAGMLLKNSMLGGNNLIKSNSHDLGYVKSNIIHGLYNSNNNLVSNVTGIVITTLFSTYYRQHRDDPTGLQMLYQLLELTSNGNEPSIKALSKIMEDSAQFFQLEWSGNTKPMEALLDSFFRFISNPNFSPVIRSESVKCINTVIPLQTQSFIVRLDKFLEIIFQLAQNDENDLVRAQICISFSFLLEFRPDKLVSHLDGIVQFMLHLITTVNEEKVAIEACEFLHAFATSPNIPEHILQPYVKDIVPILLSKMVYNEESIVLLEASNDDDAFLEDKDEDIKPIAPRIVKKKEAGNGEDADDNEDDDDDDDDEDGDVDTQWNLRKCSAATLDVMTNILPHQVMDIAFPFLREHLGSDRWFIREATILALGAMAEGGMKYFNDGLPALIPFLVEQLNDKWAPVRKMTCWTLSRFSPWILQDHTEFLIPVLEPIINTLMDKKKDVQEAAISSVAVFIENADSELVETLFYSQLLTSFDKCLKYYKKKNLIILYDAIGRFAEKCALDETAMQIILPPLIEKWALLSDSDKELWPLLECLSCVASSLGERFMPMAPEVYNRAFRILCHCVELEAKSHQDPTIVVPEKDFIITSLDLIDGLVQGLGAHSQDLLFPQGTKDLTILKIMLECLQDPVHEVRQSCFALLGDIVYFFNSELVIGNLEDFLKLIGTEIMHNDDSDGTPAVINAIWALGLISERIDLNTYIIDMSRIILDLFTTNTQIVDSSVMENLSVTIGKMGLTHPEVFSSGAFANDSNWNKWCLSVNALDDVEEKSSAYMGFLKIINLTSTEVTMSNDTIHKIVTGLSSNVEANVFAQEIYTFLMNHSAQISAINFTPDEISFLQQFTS

B1: His6-scAcl4•scRpL4 (complex)
chain 1: MSELEATIRQAKEALAENNAKKALKILKPFKSSLKKENANNVILNEVFADAYLDNGQVEKAYPILARACELDPEGQVGGPDKFFTMGQIMGGQDGVSIITRGIMNISNTGGEMLTNVQVEKIVGGLLSVIEIWMTDLCMEPNAEEQCEELIQKAMELTEGKSPETWSTLGSIKISQQKFGEAYEAFSQAWNFFELKKQEIGSGINENGDTTQKAGLQSEYVDLLQPLLSLTKMCLEVGAYEVALKVIAAVRDIDEDNIEGYYLEGFTYYLMSKLEIFKLNNPEVSLRPENIYEFNQLIQEVPLDLSHEPISQLIYDSRLALSFALQAGVNADSKDEIVQELLGGANALLQEIGGPLDPSELTQIKKGDLVNENEDLEELDIEEEYSD
chain 2: not shown
B2: scRpL4 (natural protein)
chain: not shown

Target: T1, GST-scKap104
Assay: pull-down

Row | Binder | binding result
1 | B1 | binds
2 | B2 | binds
